According to PMC2807882, “Conservation of DNA-binding specificity and oligomerisation properties within the p53 family” (BMC Genomics, 2009):

Legend:
[1] = target: the molecule itself; assay: AUC; sedimentation velocity with fluorescence detection, FlAsH-labelled protein at 5-500 nM (monomer); 150 mM NaCl, 25 mM phosphate pH 7.2, 10% glycerol, BSA 0.2 mg/mL, 1 mM β-mercaptoethanol, 10°C; tetramer to dimers; Kd expressed in concentration of monomer
[2] = target: the molecule itself; assay: AUC; sedimentation velocity with fluorescence detection, FlAsH-labelled protein at 5-500 nM (monomer); 150 mM NaCl, 25 mM phosphate pH 7.2, 10% glycerol, BSA 0.2 mg/mL, 1 mM β-mercaptoethanol, 10°C; dimer to monomers; Kd expressed in concentration of monomer
[3] = target: the molecule itself; assay: AUC; sedimentation velocity with fluorescence detection, FlAsH-labelled protein at 5-500 nM (also at 60 k rpm); 150 mM NaCl, 25 mM phosphate pH 7.2, 10% glycerol, BSA 0.2 mg/mL, 1 mM beta-mercaptoethanol, 10°C; dimer to monomers; Kd expressed in concentration of monomer
[4] = target: the molecule itself; assay: AUC; sedimentation velocity with fluorescence detection, FlAsH-labelled protein at 5-500 nM; 150 mM NaCl, 25 mM phosphate pH 7.2, 10% glycerol, BSA 0.2 mg/mL, 1 mM beta-mercaptoethanol, 10°C; tetramer to dimers; Kd expressed in concentration of monomer

| Protein | Kd [1] | stoichiometry N [4] | further results |
| --- | --- | --- | --- |
| Human p63 isoform ΔNp63β, with C-terminal FlAsH tag, FlAsH-labelled (natural protein, UniProt Q9H3D4-4 1-461, looked up, FlAsH (from FlAsH-EDT2, an arsenic derivative of fluorescein) on the C-terminal CCPGCC tetra-cysteine tag, the whole isoform is surmised; also called ΔNp63β-FlAsH; not shown: 6xHis, N-terminal, cleaved; lipoyl domain, N-terminal, cleaved; FlAsH-tag CCPGCC, C-terminal, kept) MLYLENNAQTQFSEPQYTNLGLLNSMDQQIQNGSSSTSPYNTDHAQNSVTAPSPYAQPSSTFDALSPSPAIPSNTDYPGPHSFDVSFQQSSTAKSATWTYSTELKKLYCQIAKTCPIQIKVMTPPPQGAVIRAMPVYKKAEHVTEVVKRCPNHELSREFNEGQIAPPSHLIRVEGNSHAQYVEDPITGRQSVLVPYEPPQVGTEFTTVLYNFMCNSSCVGGMNRRPILIIVTLETRDGQVLGRRCFEARICACPGRDRKADEDSIRKQQVSDSTKNGDGTKRPFRQNTHGIQMTSIKKRRSPDDELLYLPVRGRETYEMLLKIKESLELMQYLPQHTIETYRQQQQQQHQHLLQKQTSIQSPSSYGNSSPPLNKMNSMNKLPSVSQLINPQQRNALTPTTIPDGMGANIPMMGTHMPMAGDMNGLSPTQALPPPLSMPSTSHCTPPPPYPTDCSIVRIWQV | 12.2 nM |  | Kd [2]: 9.3 nM |
| human ΔNp63β with C-terminal FlAsH tag, labelled with FlAsH (natural protein, UniProt Q9H3D4-4 1-461, looked up, FlAsH (from FlAsH-EDT2, Lumio Green) on the C-terminal CCPGCC tetra-cysteine tag, also called human p63; not shown: FlAsH tag CCPGCC, C-terminal, kept; 6xHis, N-terminal, cleaved; lipoyl domain, N-terminal, cleaved) MLYLENNAQTQFSEPQYTNLGLLNSMDQQIQNGSSSTSPYNTDHAQNSVTAPSPYAQPSSTFDALSPSPAIPSNTDYPGPHSFDVSFQQSSTAKSATWTYSTELKKLYCQIAKTCPIQIKVMTPPPQGAVIRAMPVYKKAEHVTEVVKRCPNHELSREFNEGQIAPPSHLIRVEGNSHAQYVEDPITGRQSVLVPYEPPQVGTEFTTVLYNFMCNSSCVGGMNRRPILIIVTLETRDGQVLGRRCFEARICACPGRDRKADEDSIRKQQVSDSTKNGDGTKRPFRQNTHGIQMTSIKKRRSPDDELLYLPVRGRETYEMLLKIKESLELMQYLPQHTIETYRQQQQQQHQHLLQKQTSIQSPSSYGNSSPPLNKMNSMNKLPSVSQLINPQQRNALTPTTIPDGMGANIPMMGTHMPMAGDMNGLSPTQALPPPLSMPSTSHCTPPPPYPTDCSIVRIWQV |  | 4 | fold weaker primary dimer (monomer-dimer equilibrium) than human p53 [3]: 9 fold; fold weaker self-association (dimer-tetramer equilibrium) than Dmp53, Drp53 and ΔNp73β [4]: ~5 fold |
| Human p73 isoform ΔNp73β, with C-terminal FlAsH tag, FlAsH-labelled (natural protein, UniProt O15350-9 1-450, looked up, FlAsH (from FlAsH-EDT2, an arsenic derivative of fluorescein) on the C-terminal CCPGCC tetra-cysteine tag, the whole isoform is surmised; also called ΔNp73β-FlAsH; not shown: 6xHis, N-terminal, cleaved; lipoyl domain, N-terminal, cleaved; FlAsH-tag CCPGCC, C-terminal, kept) MLYVGDPARHLATAQFNLLSSTMDQMSSRAASASPYTPEHAASVPTHSPYAQPSSTFDTMSPAPVIPSNTDYPGPHHFEVTFQQSSTAKSATWTYSPLLKKLYCQIAKTCPIQIKVSTPPPPGTAIRAMPVYKKAEHVTDVVKRCPNHELGRDFNEGQSAPASHLIRVEGNNLSQYVDDPVTGRQSVVVPYEPPQVGTEFTTILYNFMCNSSCVGGMNRRPILIIITLEMRDGQVLGRRSFEGRICACPGRDRKADEDHYREQQALNESSAKNGAASKRAFKQSPPAVPALGAGVKKRRHGDEDTYYLQVRGRENFEILMKLKESLELMELVPQPLVDSYRQQQQLLQRPSHLQPPSYGPVLSPMNKVHGGMNKLPSVNQLVGQPPPHSSAATPNLGPVGPGMLNNHGHAVPANGEMSSSHSAQSMVSGSHCTPPPPYHADPSLVRTWGP | 2.4 nM |  | Kd [2]: 5.7 nM |
| human ΔNp73β with C-terminal FlAsH tag, labelled with FlAsH (natural protein, UniProt O15350-9 1-450, looked up, FlAsH (from FlAsH-EDT2, Lumio Green) on the C-terminal CCPGCC tetra-cysteine tag, also called human p73; not shown: FlAsH tag CCPGCC, C-terminal, kept; 6xHis, N-terminal, cleaved; lipoyl domain, N-terminal, cleaved) MLYVGDPARHLATAQFNLLSSTMDQMSSRAASASPYTPEHAASVPTHSPYAQPSSTFDTMSPAPVIPSNTDYPGPHHFEVTFQQSSTAKSATWTYSPLLKKLYCQIAKTCPIQIKVSTPPPPGTAIRAMPVYKKAEHVTDVVKRCPNHELGRDFNEGQSAPASHLIRVEGNNLSQYVDDPVTGRQSVVVPYEPPQVGTEFTTILYNFMCNSSCVGGMNRRPILIIITLEMRDGQVLGRRSFEGRICACPGRDRKADEDHYREQQALNESSAKNGAASKRAFKQSPPAVPALGAGVKKRRHGDEDTYYLQVRGRENFEILMKLKESLELMELVPQPLVDSYRQQQQLLQRPSHLQPPSYGPVLSPMNKVHGGMNKLPSVNQLVGQPPPHSSAATPNLGPVGPGMLNNHGHAVPANGEMSSSHSAQSMVSGSHCTPPPPYHADPSLVRTWGP |  | 4 | fold weaker primary dimer (monomer-dimer equilibrium) than human p53 [3]: 6 fold |
| Danio rerio p53, full length, with C-terminal FlAsH tag, FlAsH-labelled (natural protein, UniProt P79734 1-373, looked up, FlAsH (from FlAsH-EDT2, an arsenic derivative of fluorescein) on the C-terminal CCPGCC tetra-cysteine tag, p53 of zebrafish (Danio rerio), full-length protein, from a Mammalian Gene Collection clone; also called Drp53; Drp53-FlAsH; not shown: 6xHis, N-terminal, cleaved; lipoyl domain, N-terminal, cleaved; FlAsH-tag CCPGCC, C-terminal, kept) MAQNDSQEFAELWEKNLIIQPPGGGSCWDIINDEEYLPGSFDPNFFENVLEEQPQPSTLPPTSTVPETSDYPGDHGFRLRFPQSGTAKSVTCTYSPDLNKLFCQLAKTCPVQMVVDVAPPQGSVVRATAIYKKSEHVAEVVRRCPHHERTPDGDNLAPAGHLIRVEGNQRANYREDNITLRHSVFVPYEAPQLGAEWTTVLLNYMCNSSCMGGMNRRPILTIITLETQEGQLLGRRSFEVRVCACPGRDRKTEESNFKKDQETKTMAKTTTGTKRSLVKESSSATLRPEGSKKAKGSSSDEEIFTLQVRGRERYEILKKLNDSLELSDVVPASDAEKYRQKFMTKNKKENRESSEPKQGKKLMVKDEGRSDSD | 3.6 nM |  |  |
| Drp53 (zebrafish p53) with C-terminal FlAsH tag, labelled with FlAsH (natural protein, zebrafish (Danio rerio), UniProt P79734 1-373, looked up, FlAsH (from FlAsH-EDT2, Lumio Green) on the C-terminal CCPGCC tetra-cysteine tag, not shown: FlAsH tag CCPGCC, C-terminal, kept; 6xHis, N-terminal, cleaved; lipoyl domain, N-terminal, cleaved) MAQNDSQEFAELWEKNLIIQPPGGGSCWDIINDEEYLPGSFDPNFFENVLEEQPQPSTLPPTSTVPETSDYPGDHGFRLRFPQSGTAKSVTCTYSPDLNKLFCQLAKTCPVQMVVDVAPPQGSVVRATAIYKKSEHVAEVVRRCPHHERTPDGDNLAPAGHLIRVEGNQRANYREDNITLRHSVFVPYEAPQLGAEWTTVLLNYMCNSSCMGGMNRRPILTIITLETQEGQLLGRRSFEVRVCACPGRDRKTEESNFKKDQETKTMAKTTTGTKRSLVKESSSATLRPEGSKKAKGSSSDEEIFTLQVRGRERYEILKKLNDSLELSDVVPASDAEKYRQKFMTKNKKENRESSEPKQGKKLMVKDEGRSDSD |  | 4 |  |
| Xenopus laevis p53, full length, with C-terminal FlAsH tag, FlAsH-labelled (natural protein, UniProt P07193 1-363, looked up, FlAsH (from FlAsH-EDT2, an arsenic derivative of fluorescein) on the C-terminal CCPGCC tetra-cysteine tag, p53 of frog (Xenopus laevis), full-length protein, from a Mammalian Gene Collection clone; also called Xlp53; Xlp53-FlAsH; not shown: 6xHis, N-terminal, cleaved; lipoyl domain, N-terminal, cleaved; FlAsH-tag CCPGCC, C-terminal, kept) MEPSSETGMDPPLSQETFEDLWSLLPDPLQTVTCRLDNLSEFPDYPLAADMTVLQEGLMGNAVPTVTSCAVPSTDDYAGKYGLQLDFQQNGTAKSVTCTYSPELNKLFCQLAKTCPLLVRVESPPPRGSILRATAVYKKSEHVAEVVKRCPHHERSVEPGEDAAPPSHLMRVEGNLQAYYMEDVNSGRHSVCVPYEGPQVGTECTTVLYNYMCNSSCMGGMNRRPILTIITLETPQGLLLGRRCFEVRVCACPGRDRRTEEDNYTKKRGLKPSGKRELAHPPSSEPPLPKKRLVVVDDDEEIFTLRIKGRSRYEMIKKLNDALELQESLDQQKVTIKCRKCRDEIKPKKGKKLLVKDEQPDSE | 27.6 nM |  |  |
| Xlp53 (Xenopus laevis p53) with C-terminal FlAsH tag, labelled with FlAsH (natural protein, frog (Xenopus laevis), UniProt P07193 1-363, looked up, FlAsH (from FlAsH-EDT2, Lumio Green) on the C-terminal CCPGCC tetra-cysteine tag, also called frog p53; not shown: FlAsH tag CCPGCC, C-terminal, kept; 6xHis, N-terminal, cleaved; lipoyl domain, N-terminal, cleaved) MEPSSETGMDPPLSQETFEDLWSLLPDPLQTVTCRLDNLSEFPDYPLAADMTVLQEGLMGNAVPTVTSCAVPSTDDYAGKYGLQLDFQQNGTAKSVTCTYSPELNKLFCQLAKTCPLLVRVESPPPRGSILRATAVYKKSEHVAEVVKRCPHHERSVEPGEDAAPPSHLMRVEGNLQAYYMEDVNSGRHSVCVPYEGPQVGTECTTVLYNYMCNSSCMGGMNRRPILTIITLETPQGLLLGRRCFEVRVCACPGRDRRTEEDNYTKKRGLKPSGKRELAHPPSSEPPLPKKRLVVVDDDEEIFTLRIKGRSRYEMIKKLNDALELQESLDQQKVTIKCRKCRDEIKPKKGKKLLVKDEQPDSE |  | 4 | fold weaker self-association (dimer-tetramer equilibrium) than Dmp53, Drp53 and ΔNp73β [4]: ~10 fold |
| Drosophila melanogaster p53, full length, with C-terminal FlAsH tag, FlAsH-labelled (natural protein, UniProt Q9N6D8 1-385, looked up, FlAsH (from FlAsH-EDT2, an arsenic derivative of fluorescein) on the C-terminal CCPGCC tetra-cysteine tag, p53 of Drosophila melanogaster, full-length protein, amplified from a cDNA library; also called Dmp53; Dmp53-FlAsH; not shown: 6xHis, N-terminal, cleaved; lipoyl domain, N-terminal, cleaved; FlAsH-tag CCPGCC, C-terminal, kept) MYISQPMSWHKESTDSEDDSTEVDIKEDIPKTVEVSGSELTTEPMAFLQGLNSGNLMQFSQQSVLREMMLQDIQIQANTLPKLENHNIGGYCFSMVLDEPPKSLWMYSIPLNKLYIRMNKAFNVDVQFKSKMPIQPLNLRVFLCFSNDVSAPVVRCQNHLSVEPLTANNAKMRESLLRSENPNSVYCGNAQGKGISERFSVVVPLNMSRSVTRSGLTRQTLAFKFVCQNSCIGRKETSLVFCLEKACGDIVGQHVIHVKICTCPKRDRIQDERQLNSKKRKSVPEAAEEDEPSKVRRCIAIKTEDTESNDSRDCDDSAAEWNVSRTPDGDYRLAITCPNKEWLLQSIEGMIKEAAAEVLRNPNQENLRRHANKLLSLKKRAYELP | 1.7 nM |  |  |
| Dmp53 (Drosophila melanogaster p53) with C-terminal FlAsH tag, labelled with FlAsH (natural protein, fruit fly (Drosophila melanogaster), UniProt Q9N6D8 1-385, looked up, FlAsH (from FlAsH-EDT2, Lumio Green) on the C-terminal CCPGCC tetra-cysteine tag, amplified from a cDNA library (Simon Bullock); also called fruit fly p53; not shown: FlAsH tag CCPGCC, C-terminal, kept; 6xHis, N-terminal, cleaved; lipoyl domain, N-terminal, cleaved) MYISQPMSWHKESTDSEDDSTEVDIKEDIPKTVEVSGSELTTEPMAFLQGLNSGNLMQFSQQSVLREMMLQDIQIQANTLPKLENHNIGGYCFSMVLDEPPKSLWMYSIPLNKLYIRMNKAFNVDVQFKSKMPIQPLNLRVFLCFSNDVSAPVVRCQNHLSVEPLTANNAKMRESLLRSENPNSVYCGNAQGKGISERFSVVVPLNMSRSVTRSGLTRQTLAFKFVCQNSCIGRKETSLVFCLEKACGDIVGQHVIHVKICTCPKRDRIQDERQLNSKKRKSVPEAAEEDEPSKVRRCIAIKTEDTESNDSRDCDDSAAEWNVSRTPDGDYRLAITCPNKEWLLQSIEGMIKEAAAEVLRNPNQENLRRHANKLLSLKKRAYELP |  | 4 |  |
